How the values were obtained:
[1] = molecular target: trypsin (Sus scrofa, UniProt P00761); experiment: Trypsin digestion resistance of soluble peptide, RP-HPLC; format: in vitro ADME, porcine; set-up: purchased Sigma Aldrich 6567; details: 500 U/ml trypsin, 30 minutes at 37.5° C.; HPLC peak vs untreated peptide
How it was run: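 12.5 μg soluble peptide digested with 500 U/ml porcine trypsin in PBS, 30 min at 37.5° C; quenched with soybean trypsin inhibitor, with or without 10 mM DTT reduction afterwards. Intact peptide assessed by C-18 RP-HPLC, 5-45% acetonitrile/0.1% TFA gradient over 10 min.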

[2] = Resistance to elevated temperature, HPLC; format: physicochemical; details: HPLC peak vs untreated peptide; for Resistance to Temperature (70° C.): 70° C. for one hour; for Resistance to Temperature (75° C.): 75° C. for one hour; for Resistance to Temperature (100° C.): 100° C. for one hour
How it was run: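 Peptides were incubated at room temperature, 70° C or 100° C for one hour in ddH2O; another protocol used 70° C, 75° C or 100° C for one hour in 0.5 mM PBS, then pelleting and analysis of the supernatant. Remaining peptide was measured by C-18 RP-HPLC, 5–45% acetonitrile/0.1% TFA over 10 min.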

[3] = Resistance to reduction by DTT, RP-HPLC; format: physicochemical; details: 10 mM DTT in PBS, room temperature, 30 minutes; HPLC peak vs untreated peptide
How it was run: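 Peptide (12.5 μg from a 2 mg/ml stock, or 0.015 mM final in PBS) was held 30 min at room temperature with or without 10 mM DTT. Reduced and non-reduced forms were compared by C-18 RP-HPLC using a 5–45% acetonitrile/0.1% TFA gradient over 10 min, with detection at 214 and 280 nm.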

[4] = molecular target: pepsin (Sus scrofa, UniProt P00791); experiment: Pepsin digestion resistance in simulated gastric fluid, RP-HPLC; format: in vitro ADME, porcine; set-up: purchased Sigma Aldrich P7012; details: 500 U/ml pepsin in SGF pH 1.05, 30 minutes at 37.5° C.; HPLC peak vs untreated peptide
How it was run: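 Peptide (12.5 μg) incubated 30 min at 37.5 °C with or without 500 U/ml pepsin in simulated gastric fluid (pH 1.05; 2% NaCl in 0.7% HCl); some reactions quenched with 100 mM Tris and 10 mM DTT. Intact peptide followed by C-18 RP-HPLC (5–45% acetonitrile/0.1% TFA over 10 min) at 214 and 280 nm.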

Sequence of trypsin (P00761 9-231): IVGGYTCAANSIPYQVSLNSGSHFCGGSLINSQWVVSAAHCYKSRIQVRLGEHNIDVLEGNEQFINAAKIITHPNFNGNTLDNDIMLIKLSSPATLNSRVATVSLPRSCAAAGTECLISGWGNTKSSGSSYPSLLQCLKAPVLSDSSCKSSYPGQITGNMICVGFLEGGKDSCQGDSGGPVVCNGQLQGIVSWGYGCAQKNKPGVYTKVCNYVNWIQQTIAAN
Sequence of pepsin (P00791 60-385): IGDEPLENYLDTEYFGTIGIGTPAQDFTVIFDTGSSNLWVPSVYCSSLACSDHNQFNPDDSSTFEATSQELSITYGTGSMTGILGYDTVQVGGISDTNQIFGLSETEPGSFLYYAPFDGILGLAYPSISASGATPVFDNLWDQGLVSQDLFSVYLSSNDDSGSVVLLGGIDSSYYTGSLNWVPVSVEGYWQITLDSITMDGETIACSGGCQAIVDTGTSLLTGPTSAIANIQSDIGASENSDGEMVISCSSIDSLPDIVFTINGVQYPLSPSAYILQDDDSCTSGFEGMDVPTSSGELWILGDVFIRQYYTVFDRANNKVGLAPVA

Substance	Resistance to Trypsin (500 U/ml) [1]	Resistance to Temperature (70° C.) [2]	Resistance to Temperature (75° C.) [2]	Resistance to Temperature (100° C.) [2]	Resistance to DTT Reduction (10 mM) [3]	Resistance to Pepsin (500 U/ml) [4]
25 (GSACLAEYQKCEGSTVPCCPGLSCSAGRFRKTKLCTK) [compound 25]	Low (A peptide classified as low indicates that the majority (over 75%) of the HPLC peak of the treated peptide disappeared as compared to the HPLC peak of the untreated peptide)	High (A peptide classified as high indicates that the majority (at least 75%) of the HPLC peak of the treated peptide is still present as compared to the HPLC peak of the untreated peptide)	High (A peptide classified as high indicates that the majority (at least 75%) of the HPLC peak of the treated peptide is still present as compared to the HPLC peak of the untreated peptide)	Low (A peptide classified as low indicates that the majority (over 75%) of the HPLC peak of the treated peptide disappeared as compared to the HPLC peak of the untreated peptide)	Low (A peptide classified as low indicates that the majority (over 75%) of the HPLC peak of the treated peptide disappeared as compared to the HPLC peak of the untreated peptide)	High (A peptide classified as high indicates that the majority (at least 75%) of the HPLC peak of the treated peptide is still present as compared to the HPLC peak of the untreated peptide)
32 (GSSCAKPRENCNRMNILCCRGECVCPTFGDCFCYGD) [compound 32]	Low (A peptide classified as low indicates that the majority (over 75%) of the HPLC peak of the treated peptide disappeared as compared to the HPLC peak of the untreated peptide)	High (A peptide classified as high indicates that the majority (at least 75%) of the HPLC peak of the treated peptide is still present as compared to the HPLC peak of the untreated peptide)	High (A peptide classified as high indicates that the majority (at least 75%) of the HPLC peak of the treated peptide is still present as compared to the HPLC peak of the untreated peptide)	High (A peptide classified as high indicates that the majority (at least 75%) of the HPLC peak of the treated peptide is still present as compared to the HPLC peak of the untreated peptide)	Low (A peptide classified as low indicates that the majority (over 75%) of the HPLC peak of the treated peptide disappeared as compared to the HPLC peak of the untreated peptide)	High (A peptide classified as high indicates that the majority (at least 75%) of the HPLC peak of the treated peptide is still present as compared to the HPLC peak of the untreated peptide)
34 (GSGCFGYKCDYYKGCCSGYVCSPTWKWCVRPGPGR) [compound 34]	Low (A peptide classified as low indicates that the majority (over 75%) of the HPLC peak of the treated peptide disappeared as compared to the HPLC peak of the untreated peptide)	–	High (A peptide classified as high indicates that the majority (at least 75%) of the HPLC peak of the treated peptide is still present as compared to the HPLC peak of the untreated peptide)	Low (A peptide classified as low indicates that the majority (over 75%) of the HPLC peak of the treated peptide disappeared as compared to the HPLC peak of the untreated peptide)	Low (A peptide classified as low indicates that the majority (over 75%) of the HPLC peak of the treated peptide disappeared as compared to the HPLC peak of the untreated peptide)	Low (A peptide classified as low indicates that the majority (over 75%) of the HPLC peak of the treated peptide disappeared as compared to the HPLC peak of the untreated peptide)
46 (GSDCKYKFENWGACDGGTGTKVRQGTLKKARYNAQCQETIRVTKPC) [compound 46]	Low (A peptide classified as low indicates that the majority (over 75%) of the HPLC peak of the treated peptide disappeared as compared to the HPLC peak of the untreated peptide)	–	High (A peptide classified as high indicates that the majority (at least 75%) of the HPLC peak of the treated peptide is still present as compared to the HPLC peak of the untreated peptide)	Low (A peptide classified as low indicates that the majority (over 75%) of the HPLC peak of the treated peptide disappeared as compared to the HPLC peak of the untreated peptide)	Low (A peptide classified as low indicates that the majority (over 75%) of the HPLC peak of the treated peptide disappeared as compared to the HPLC peak of the untreated peptide)	Low (A peptide classified as low indicates that the majority (over 75%) of the HPLC peak of the treated peptide disappeared as compared to the HPLC peak of the untreated peptide)
47 (GSAQEPVKGPVSTKPGSCPIILIRCAMLNPPNRCLKDTDCPGIKKCCEGSCGMACFVPQ) [compound 47]	Low (A peptide classified as low indicates that the majority (over 75%) of the HPLC peak of the treated peptide disappeared as compared to the HPLC peak of the untreated peptide)	–	High (A peptide classified as high indicates that the majority (at least 75%) of the HPLC peak of the treated peptide is still present as compared to the HPLC peak of the untreated peptide)	Low (A peptide classified as low indicates that the majority (over 75%) of the HPLC peak of the treated peptide disappeared as compared to the HPLC peak of the untreated peptide)	Low (A peptide classified as low indicates that the majority (over 75%) of the HPLC peak of the treated peptide disappeared as compared to the HPLC peak of the untreated peptide)	Low (A peptide classified as low indicates that the majority (over 75%) of the HPLC peak of the treated peptide disappeared as compared to the HPLC peak of the untreated peptide)
48 (GSGIGDPVTCLKSGAICHPVFCPRRYKQIGTCGLPGTKCCKKP) [compound 48]	Low (A peptide classified as low indicates that the majority (over 75%) of the HPLC peak of the treated peptide disappeared as compared to the HPLC peak of the untreated peptide)	–	High (A peptide classified as high indicates that the majority (at least 75%) of the HPLC peak of the treated peptide is still present as compared to the HPLC peak of the untreated peptide)	High (A peptide classified as high indicates that the majority (at least 75%) of the HPLC peak of the treated peptide is still present as compared to the HPLC peak of the untreated peptide)	Low (A peptide classified as low indicates that the majority (over 75%) of the HPLC peak of the treated peptide disappeared as compared to the HPLC peak of the untreated peptide)	High (A peptide classified as high indicates that the majority (at least 75%) of the HPLC peak of the treated peptide is still present as compared to the HPLC peak of the untreated peptide)
49 (GSSFGLCRLRRGFCARGRCRFPSIPIGRCSRFVQCCRRVW) [compound 49]	Low (A peptide classified as low indicates that the majority (over 75%) of the HPLC peak of the treated peptide disappeared as compared to the HPLC peak of the untreated peptide)	–	High (A peptide classified as high indicates that the majority (at least 75%) of the HPLC peak of the treated peptide is still present as compared to the HPLC peak of the untreated peptide)	Low (A peptide classified as low indicates that the majority (over 75%) of the HPLC peak of the treated peptide disappeared as compared to the HPLC peak of the untreated peptide)	Low (A peptide classified as low indicates that the majority (over 75%) of the HPLC peak of the treated peptide disappeared as compared to the HPLC peak of the untreated peptide)	High (A peptide classified as high indicates that the majority (at least 75%) of the HPLC peak of the treated peptide is still present as compared to the HPLC peak of the untreated peptide)
